We go through nine molecules from patent US20200317776A1 (published 2020).

For test [1], the target named is T1, human TREM2 expressed on cells (human, UniProt Q9NZC2 19-230).
T1 construct: BW5147.G.1.4 cells stably expressing human TREM2 together with Dap12, or endogenous TREM2 of primary human myeloid cells; also called huT2 BW; hTREM2 expressing cell line
T1 sequence: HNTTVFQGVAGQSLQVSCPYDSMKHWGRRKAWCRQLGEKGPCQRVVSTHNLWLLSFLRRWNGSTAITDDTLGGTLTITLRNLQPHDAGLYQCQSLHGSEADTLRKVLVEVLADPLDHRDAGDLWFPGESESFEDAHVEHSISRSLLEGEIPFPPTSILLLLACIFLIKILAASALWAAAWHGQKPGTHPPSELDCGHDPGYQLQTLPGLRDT
Nature of the test: FACS, human DCs. An excerpt:
(§1) To examine cell binding of affinity matured anti-TREM2 antibodies, both primary human monocyte derived dendritic cells and recombinant, human TREM2 expressing cells were utilized. For the latter, BW5147.G.1.4 (ATCC® TIB48™) and HEK293T cells stably expressing human TREM2 together with Dap12 using viral infection were established. For primary human monocyte derived dendritic cells, human monocytes were isolated from whole blood using RosetteSep Human monocyte enrichment cocktail (Stemcell technologies) and Ficoll centrifugation per manufacturer protocols. After lysing red blood cells with ACK lysing buffer, monocytes were resuspended in complete media (RPMI, 10% FBS, Pen/Strep, L-glutamine, HEPES, non-essential amino acid, Sodium pyruvate) with 100 ng/ml human GM-CSF (hu-GMCSF) and, human IL-4 (hu-IL-4) to differentiate dendritic cells for 6 days.
(§2) Cells were harvested by trypsinization (Hek293T) or scraping (BW and dendritic cells), washed in PBS, counted and plated on 96-well U bottom plates at […] cells/well. The plates were spun at 1,400 rpm for 3 minutes and primary TREM2 or control antibodies were added in FACS buffer (PBS+2% FBS) and incubated on ice for one hour. Cells were subsequently centrifuged as before and washed thrice with FACS buffer. Cells were then incubated with anti-human PE conjugated secondary antibody (BD Biosciences) in FACS buffer for 30 minutes on ice. Cells were again washed thrice with FACS buffer and analyzed on a BD FACS Canto or an Intellicyt Flow Cytometer. Binding was measured as mean fluorescence intensity in the APC channel.
A general note: Flow cytometry measures light scatter and fluorescence of single cells or particles in a stream.

The target in test [2] is T2, human TREM2 Fc fusion (entire TREM2 ECD; only one Fc arm fused to TREM2) (human, UniProt Q9NZC2 19-174).
T2 construct: also called huTREM2-Fc; recombinant hTREM2
T2 sequence: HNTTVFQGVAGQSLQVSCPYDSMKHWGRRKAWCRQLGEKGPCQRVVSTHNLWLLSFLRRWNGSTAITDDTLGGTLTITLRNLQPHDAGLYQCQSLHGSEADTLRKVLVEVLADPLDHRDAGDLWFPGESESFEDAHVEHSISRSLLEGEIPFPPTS
Description: BLI, Fab, monovalent. (BLI is a label-free optical method that tracks binding on a fibre tip over time.)

Test [3] has as its target T3, cynomolgus monkey TREM2 Fc fusion (entire TREM2 ECD; only one Fc arm fused to TREM2) (cynomolgus monkey, UniProt Q9NZC2 19-174 (human entry)).
T3 construct: also called cyno TREM2-Fc
T3 chain: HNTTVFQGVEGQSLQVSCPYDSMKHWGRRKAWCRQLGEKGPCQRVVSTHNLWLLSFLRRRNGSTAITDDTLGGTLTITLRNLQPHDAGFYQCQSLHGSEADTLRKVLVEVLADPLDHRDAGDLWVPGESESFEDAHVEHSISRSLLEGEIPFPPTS
Description: BLI, Fab, monovalent.

For test [4], the target named is T1, human TREM2 expressed on cells. Nature of the test: FACS, hTREM2 BW cells.
Excerpt: as §1, §2

Test [5] shares this target. Description: cell-based or functional assay.
Test [6] addresses human TREM2/DAP12 fusion protein (human, UniProt O43914 41-113, limits assumed). Description: cell-based or functional assay.

Sequence of human TREM2/DAP12 fusion protein (O43914 other isoform, or with tags, fused parts or gaps limits assumed): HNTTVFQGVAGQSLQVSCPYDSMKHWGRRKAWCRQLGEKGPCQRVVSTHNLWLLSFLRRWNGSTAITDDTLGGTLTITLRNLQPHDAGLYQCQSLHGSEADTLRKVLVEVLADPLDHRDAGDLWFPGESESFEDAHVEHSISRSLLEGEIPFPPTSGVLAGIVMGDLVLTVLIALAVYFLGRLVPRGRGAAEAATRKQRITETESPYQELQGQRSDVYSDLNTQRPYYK

B1: AL2p-48 (antibody, V domains shown)
VH: QVQLVQSGAEVKKPGSSVKVSCKASGYAFSSDWMNWVRQAPGQGLEWMGRIYPGEGDTNYARKFHGRVTITADESTSTAYMELSSLRSEDTAVYYCARLLRNKPGESYAMDYWGQGTLVTVSS
VL: DVVMTQTPLSLSVTPGQPASISCRTSQSLVHSNQYTYLHWYLQKPGQSPQLLIYKVSNRVSGVPDRFSGSGSGTDFTLKISRVEAEDVGVYYCSQSTRVPYTFGQGTKLEIK
notes: Fab and IgG formats under one id
For orientation: Kd means the free concentration of one partner at which half of the binding sites on the other are occupied at equilibrium, for simple one-to-one binding. With B1, the MFI in test [1] stood at 408 MFI. The same molecule yielded a Kd in test [2] of 11.2 nM. Also, the Kd in test [3] stood at 14.9 nM. Moreover, the Kd in test [4] stood at 1.4 nM. In test [5], the “DC viability (AUC)” value is 770000 AUC and the “Mac viability (AUC)” value is 23600 AUC. Also, in test [6], the “BW Luc assay plate bound 7.3 nM IgG, FOC” value worked out at 3.25 FOC and the “BW Luc assay soluble 7.3 nM IgG, FOC” value is 3.65 FOC.

B2: AL2p-56 (antibody, V domains shown)
VH: EVQLVQSGAEVKKPGSSVKVSCKASGYAFSSHWMNWVRQAPGQGLEWMGRIYPGEGDTNYAQKFHGRVTITADESTSTAYMELSSLRSEDTAVYYCARLLRNKPGESYAMDYWGQGTLVTVSS
VL: DVVMTQTPLSLSVTPGQPASISCRTSQSLVHSNAYTYLHWYLQKPGQSPQLLIYKVSNRVSGVPDRFSGSGSGTDFTLKISRVEAEDVGVYYCSQSTRVPYTFGQGTKLEIK
notes: same VH/VL entries as AL2p-55; Fab and IgG formats under one id
On to B2, for which the MFI in test [1] is 155 MFI. Also, in test [2], the Kd worked out at 18.7 nM. For the same molecule, the Kd in test [3] was found to be 18.8 nM. Moreover, in test [4], the affinity, expressed as Kd, was 2.01 nM. For the same molecule, in test [5], the “DC viability (AUC)” value came to 643000 AUC and the “Mac viability (AUC)” value was -7620 AUC. In addition, in test [6], the “BW Luc assay plate bound 7.3 nM IgG, FOC” value was found to be 1.51 FOC and the “BW Luc assay soluble 7.3 nM IgG, FOC” value came out at 2.02 FOC.

B3: AL2p-49 (antibody, V domains shown)
VH: EVQLVQSGAEVKKPGSSVKVSCKASGYAFSSDWMNWVRQAPGQGLEWMGRIYPGEGDTNYARKFHGRVTITADESTSTAYMELSSLRSEDTAVYYCARLLRNKPGESYAMDYWGQGTLVTVSS
VL: DVVMTQTPLSLSVTPGQPASISCRTSQSLVHSNQYTYLHWYLQKPGQSPQLLIYKVSNRVSGVPDRFSGSGSGTDFTLKISRVEAEDVGVYYCSQSTRVPYTFGQGTKLEIK
notes: as for B1
For the molecule B3, the MFI in test [1] is 413 MFI. The molecule further showed a dissociation constant Kd in test [2] of 11.6 nM. Binding in test [3] was put at a Kd of 14.1 nM. Besides, the Kd in test [4] amounted to 1.15 nM. Besides, in test [5], the “DC viability (AUC)” value was determined as 754000 AUC and the “Mac viability (AUC)” value was found to be 15100 AUC. In test [6], the “BW Luc assay plate bound 7.3 nM IgG, FOC” value stood at 3.12 FOC and the “BW Luc assay soluble 7.3 nM IgG, FOC” value turned out to be 3.28 FOC.

B4: AL2p-50 (antibody, V domains shown)
VH: QVQLVQSGAEVKKPGSSVKVSCKASGYAFSSHWMNWVRQAPGQGLEWMGRIYPGEGDTNYAQKFHGRVTITADESTSTAYMELSSLRSEDTAVYYCARLLRNQPGESYAMDYWGQGTLVTVSS
VL: DVVMTQTPLSLSVTPGQPASISCRTSQSLVHSNAYTYLHWYLQKPGQSPQLLIYKVSNRVSGVPDRFSGSGSGTDFTLKISRVEAEDVGVYYCSQSTRVPYTFGQGTKLEIK
notes: as for B1
Molecule B4 gave an MFI in test [1] of 235 MFI. In test [2], the affinity, expressed as Kd, was 23.9 nM. The Kd in test [3] was 36.1 nM. The molecule further gave a Kd in test [4] of 1.8 nM. In addition, in test [5], the “DC viability (AUC)” value is 286000 AUC and the “Mac viability (AUC)” value is -10400 AUC. In test [6], the “BW Luc assay plate bound 7.3 nM IgG, FOC” value was 1.19 FOC and the “BW Luc assay soluble 7.3 nM IgG, FOC” value was 2.07 FOC.

B5: AL2p-54 (antibody, V domains shown)
VH: QVQLVQSGAEVKKPGSSVKVSCKASGYAFSSHWMNWVRQAPGQGLEWMGRIYPGEGDTNYAQKFHGRVTITADESTSTAYMELSSLRSEDTAVYYCARLLRNKPGESYAMDYWGQGTLVTVSS
VL: DVVMTQTPLSLSVTPGQPASISCRTSQSLVHSNQYTYLHWYLQKPGQSPQLLIYKVSNRVSGVPDRFSGSGSGTDFTLKISRVEAEDVGVYYCSQSTRVPYTFGQGTKLEIK
notes: as for B1
With B5, in test [1], the MFI was 235 MFI. The molecule further came in with a Kd in test [2] of 13.9 nM. Further, binding in test [3] was put at a Kd of 16.8 nM. The same molecule displayed a Kd in test [4] of 2.3 nM. In test [5], the “DC viability (AUC)” value was 570000 AUC and the “Mac viability (AUC)” value was -7640 AUC. For the same molecule, in test [6], the “BW Luc assay plate bound 7.3 nM IgG, FOC” value came to 1.53 FOC and the “BW Luc assay soluble 7.3 nM IgG, FOC” value was 2.17 FOC.

B6: AL2p-53 (antibody, V domains shown)
VH: EVQLVQSGAEVKKPGSSVKVSCKASGYAFSSHWMNWVRQAPGQGLEWMGRIYPGEGDTNYAQKFHGRVTITADESTSTAYMELSSLRSEDTAVYYCARLLRNQPGESYAMDYWGQGTLVTVSS
VL: DVVMTQTPLSLSVTPGQPASISCRTSQSLVHSNQYTYLHWYLQKPGQSPQLLIYKVSNRVSGVPDRFSGSGSGTDFTLKISRVEAEDVGVYYCSQSTRVPYTFGQGTKLEIK
notes: as for B1
B6: the MFI in test [1] was 159 MFI. The molecule also yielded a Kd in test [2] of 21.1 nM. Further, the affinity in test [3], expressed as Kd, was 31.3 nM. Also, the affinity in test [4], expressed as Kd, was 1.72 nM. Also, in test [5], the “DC viability (AUC)” value is 234000 AUC and the “Mac viability (AUC)” value is -10200 AUC. Moreover, in test [6], the “BW Luc assay plate bound 7.3 nM IgG, FOC” value stood at 1.45 FOC and the “BW Luc assay soluble 7.3 nM IgG, FOC” value is 2.32 FOC.

B7: AL2p-51 (antibody, V domains shown)
VH: QVQLVQSGAEVKKPGSSVKVSCKASGYAFSSHWMNWVRQAPGQGLEWMGRIYPGEGDTNYAQKFHGRVTITADESTSTAYMELSSLRSEDTAVYYCARLLRNQPGESYAMDYWGQGTLVTVSS
VL: DVVMTQTPLSLSVTPGQPASISCRTSQSLVHSNQYTYLHWYLQKPGQSPQLLIYKVSNRVSGVPDRFSGSGSGTDFTLKISRVEAEDVGVYYCSQSTRVPYTFGQGTKLEIK
notes: as for B1
As to B7, in test [1], the MFI is 195 MFI. Further, the Kd in test [2] was 21.2 nM. In test [3], this molecule had a Kd of 27.2 nM. Moreover, the Kd in test [4] is 1.92 nM. For the same molecule, in test [5], the “DC viability (AUC)” value stood at 259000 AUC and the “Mac viability (AUC)” value is -11200 AUC. Further, in test [6], the “BW Luc assay plate bound 7.3 nM IgG, FOC” value worked out at 1.22 FOC and the “BW Luc assay soluble 7.3 nM IgG, FOC” value came out at 2.3 FOC.

B8: AL2p-55 (antibody, V domains shown)
VH: EVQLVQSGAEVKKPGSSVKVSCKASGYAFSSHWMNWVRQAPGQGLEWMGRIYPGEGDTNYAQKFHGRVTITADESTSTAYMELSSLRSEDTAVYYCARLLRNKPGESYAMDYWGQGTLVTVSS
VL: DVVMTQTPLSLSVTPGQPASISCRTSQSLVHSNAYTYLHWYLQKPGQSPQLLIYKVSNRVSGVPDRFSGSGSGTDFTLKISRVEAEDVGVYYCSQSTRVPYTFGQGTKLEIK
notes: same VH/VL entries as AL2p-56; Fab and IgG formats under one id
Consider B8, for which the MFI in test [1] came to 141 MFI. Further, the dissociation constant (Kd) is 18.5 nM in test [2], 22.6 nM in test [3] and 2.05 nM in test [4]. In addition, the “DC viability (AUC)” value in test [5] is 631000 AUC. The “Mac viability (AUC)” value in test [5] was -5280 AUC. For the same molecule, in test [6], the “BW Luc assay plate bound 7.3 nM IgG, FOC” value amounted to 1.49 FOC. Besides, the “BW Luc assay soluble 7.3 nM IgG, FOC” value in test [6] stood at 2.08 FOC.

B9: AL2p-52 (antibody, V domains shown)
VH: EVQLVQSGAEVKKPGSSVKVSCKASGYAFSSHWMNWVRQAPGQGLEWMGRIYPGEGDTNYAQKFHGRVTITADESTSTAYMELSSLRSEDTAVYYCARLLRNQPGESYAMDYWGQGTLVTVSS
VL: DVVMTQTPLSLSVTPGQPASISCRTSQSLVHSNAYTYLHWYLQKPGQSPQLLIYKVSNRVSGVPDRFSGSGSGTDFTLKISRVEAEDVGVYYCSQSTRVPYTFGQGTKLEIK
notes: as for B1
B9 showed an MFI in test [1] of 224 MFI. In addition, the Kd in test [2] is 27 nM. In test [3], binding was put at a Kd of 28 nM. The molecule also yielded a Kd in test [4] of 2.42 nM. Also, in test [5], the “DC viability (AUC)” value stood at 283000 AUC and the “Mac viability (AUC)” value is -13500 AUC. Moreover, in test [6], the “BW Luc assay plate bound 7.3 nM IgG, FOC” value was 1.3 FOC and the “BW Luc assay soluble 7.3 nM IgG, FOC” value worked out at 1.75 FOC.
